Where “and” joins values, the source holds several entries; their conditions need not be identical. Equal values may be shown once.
Experiments:
[1] = Heptamer stability on rechromatography (Superdex 200 size exclusion column); type: physicochemical
Source text: To examine the effect of Lys188 substitution on REGγ heptamer stability, the wildtype and Lys 188 variant heptamers were rechromatographed on the Superdex 200 (26/60) size exclusion column used for purification. […] Replacement of Lys 188 by Pro or Phe severely affected the stability of REGγ heptamer.

[2] = molecular target: proteasome β subunits (T, CT/PGPH) (Homo sapiens, UniProt P28072+P28074+Q99436); assay: Affinity labeling of proteasome β subunits with 125I-YL3-VS in the presence of REGs; type: biochemical; conditions: mean±S.D.
Source text: To obtain estimates of substrate access to the proteasome's central chamber in the presence of REGγ and REGγ(K188E), the active site-directed probe, ^125I-YL3-VS, which covalently modifies all three active β-subunits in an activity dependent manner, was used. […] The phosphoimages show increased labeling of CT/PGPH and T subunits in the presence of REGγ and REGγ(K188E). The data further reveal that REGγ increased the rate of T-subunit labeling 4.7±2.6 (mean±S.D.) fold and the rate of CT/PGPH labeling 4.4±1.7 (mean±S.D.) fold over that seen with proteasome alone. Stimulation by the mutant REGγ(K188E) was greater, being 10.8±4.9 (mean±S.D.) fold for the T-subunit and 11.9±4.8 (mean±S.D.) fold for the CT/PGPH subunit. […] The finding that REGγ increased labeling of the CT and PGPH subunits was unexpected as the wild type activator suppresses hydrolysis of the CT substrate sLLVY (SEQ ID NO:1)-MCA.

[3] = molecular target: T1, Human red blood cell proteasomes (Homo sapiens, UniProt P28072+P28074+Q99436); assay: Activation of fluorogenic peptide hydrolysis by the proteasome in the presence of REG variants; type: biochemical
T1 construct: Human red blood cell proteasomes; from tissue; host or cells: human red blood cells
Procedure: Human red blood cell proteasomes (170 ng) were mixed with increasing amounts of purified REG variants. The reactions were started by adding 50 μl of 200 μMscu-LLVY-MCA, Boc-LRR-MCA, or Boc-LLE-βNA in 10 mM Tris, pH 7.5. After a 10 min incubation, the reaction was quenched with 200μl of cold 100% ethanol, and the released MCA or βNA ws measured fluometrically. Each data point represents the mean of three measurements from a single experiment. […] REGα (▪), REGγ(□), REGγ(K188E) or REGγ(K188D) (●), REGγ(K188H) (∘), REGγ(K188Q) or REGγ(K188N) (Δ), REGγ(K188A) (♦). The data for REGγ(K188E) and REGγ(K188D) and for REGγ(K188Q) and REGγ(K188N) were combined since their activities were indistinguishable.
Because each positive variant identified in the previous example included a mutation at Lys188, site-directed mutagenesis was used to generate a series of amino acid substitutions at this residue. Twelve mutants were constructed in which Lys188 of REGγ was changed to Ala, Arg, Asn, Asp, Cys, Gln, Glu, His, Ile, Phe, Pro, or Ser. Wild-type REGγ and the Lys 188 variants were expressed in E. coli, purified, and the activation specificity of each protein was measured using the diagnostic peptides LLVY (SEQ ID NO:1)-MCA, LRR-MCA, and LLE-βNA. Except for the K188R variant, all Lys 188 mutants stimulated the hydrolysis of LRR-MCA by the proteasome to the same extent or slightly better than wild-type REGγ. Substitution of negatively-charged Glu or Asp for the positively-charged Lys188 produced mutants with activation properties almost identical to REGα.
To determine the degree to which the activation specificity of REGγ(K188E/D) variants matches that of REGα, proteasomal cleavage of a series of fluorogenic peptides was measured in the presence of each activator.

proteasome [4] = molecular target: T2, proteasome (Homo sapiens, UniProt P28072+P28074+Q99436); assay: Proteasomal hydrolysis of natural peptides P21 and BBC1 (HPLC); type: biochemical; conditions: 21-residue peptide P21; result in words
Procedure: Proteasomal hydrolysis of a 21 -residue peptide (P21) and a 49-residue peptide (BBC1) were prepared as described by Zhang et al. (1998), Proteasome Activation by REG Molecules Lacking Homolog-specific Inserts, J. Biol. Chem. 273:9501-09. Digestion products were applied to a C18 HPLC column and separated with a gradient of 0-45% acetonitrile containing 0.1% trifluoroacetic acid. To identify the products derived from P21, fractions were collected manually, concentrated, and subjected to mass spectrometry.

proteasomes [5] = molecular target: T3, proteasomes (Homo sapiens, UniProt P28072+P28074+Q99436); assay: Proteasomal degradation of the fluorescein-tagged C31 peptide of APP; type: biochemical; conditions: result in words
Procedure: A 31-residue C-terminal peptide (C31) of APP, the transmembrane protein that gives rise to amyloid plaque forming Aβ peptides characteristic of Alzheimer's disease, was synthesized using routine peptide synthesis. A fluorescein tag was added to the peptide. C31 peptide is cytotoxic. See Lu et al. (2000), a Second Cytotoxic Proteolytic Peptide Derived from Amyloid Beta-Protein Precursor, Nat. Med. 6:397-404.
The C31 was incubated with proteasomes alone, proteasomes+REGγ, proteasome+REGγ(K188E) or proteasomes+REGα/β, and degradation was assayed as described in Example 8.

[6] = molecular target: T1, Human red blood cell proteasomes; assay: Activation of fluorogenic peptide hydrolysis by the proteasome in the presence of REG variants; type: biochemical; remark: listed apart in the source
proteasomes [7] = molecular target: T3, proteasomes; assay: Proteasomal degradation of fluorescein-labeled polyQ peptides (molecular exclusion chromatography); type: biochemical
Procedure: The following peptides were synthesized using routine peptide synthesis:
Each peptide was incubated for 5 hr with proteasomes alone, proteasomes+REGγ, proteasome+REGγ(K188E) or proteasomes+REGα/β. Degradation was assayed by molecular exclusion chromatography using fluorescein as a signal (see FIG. 2). The degradation products were identified by HPLC-MS (FIG. 3). […] By contrast, in the presence of REGγ(K188E) the various polyQ peptides were degraded 5 to 10-fold faster.

proteasome [8] = molecular target: T2, proteasome; assay: REGα(N146Y)/REGβ(N135Y) competition assay for relative proteasome affinity; type: binding; conditions: in terms of REGα(N146Y)/REGβ(N135Y) competition; wild-type REGγ 100
Source text: As a measure of the relative affinities of REGγ and the REGγLys188 mutants for the proteasome, a competition assay was used. See Li et al. (2000), The Proteasome Activator 11S REG or PA28: Chimeras Implicate Carboxyl-Terminal Sequences in Oligomerization and Proteasome Binding But Not in the Activation of Specific Proteasome Catalytic Subunits. J. Mol. Biol. 299:641-54. All REGγLys188 mutants were relatively resistant to REGα(N146Y)/REGβ(N135Y) competition with apparent proteasome affinities varying from 40% to 90% that of wild-type REGγ.

[9] = proteasome + activator, 5 hr incubation

## REGγ: wild-type 11S REG proteasome activator subunit, a homo-heptamer found principally in the nucleus
[1]; Superdex 200 second gel filtration
  Percentage that remained heptamers on rechromatography: remained fully heptameric
[1]; after second gel filtration
  Percent heptamer: >95%
[2]
  Increase in rate of CT/PGPH labeling over proteasome alone: 4.4±1.7 fold
  Increase in rate of T-subunit labeling over proteasome alone: 4.7±2.6 fold
[3]; substrate LLE-βNA (PGPH site)
  Stimulation of cleavage (x-fold) LLE: 0.6 x-fold
[3]; substrate LLVY-MCA (chymotrypsin-like site)
  Stimulation of cleavage (x-fold) LLVY: 0.4 x-fold
[3]; substrate LRR-MCA (trypsin-like site)
  Stimulation of cleavage (x-fold) LRR: 12 x-fold and 11 x-fold
Proteasome [4]
  Hydrolysis of P21 by the proteasome: decreased
Proteasomes [5]
  Degradation of C31 peptide by proteasomes: Only trace amounts
[6]; compared to the basal rate in the absence of REGγ (Example 10)
  Stimulation of cleavage of the LRR-MCA substrate: 10-20 fold
[6]; result in words
  Proteasomal cleavage of sucLLVY-MCA: does not promote
[6]; substrate AAF-MCA
  Stimulation of cleavage (x-fold) AAF-MCA: 1 x-fold
[6]; substrate DEVD(SEQ ID NO: 8)-MCA
  Stimulation of cleavage (x-fold) DEVD-MCA: 2 x-fold
[6]; substrate FSR-MCA
  Stimulation of cleavage (x-fold) FSR-MCA: 7 x-fold
[6]; substrate IEGR(SEQ ID NO: 5)-MCA
  Stimulation of cleavage (x-fold) IEGR-MCA: 1 x-fold
[6]; substrate IETD(SEQ ID NO: 6)-MCA
  Stimulation of cleavage (x-fold) IETD-MCA: 1 x-fold
[6]; substrate LGHD(SEQ ID NO: 7)-MCA
  Stimulation of cleavage (x-fold) LGHD-MCA: 1 x-fold
[6]; substrate LY-MCA
  Stimulation of cleavage (x-fold) LY-MCA: 2 x-fold
[6]; substrate VLK-MCA
  Stimulation of cleavage (x-fold) VLK-MCA: 5 x-fold
[6]; substrate YVAD(SEQ ID NO: 9)-MCA
  Stimulation of cleavage (x-fold) YVAD-MCA: 0.9 x-fold
Proteasomes [7]; [9]
  % Degraded, substrate F1-EPQPQ: 5%
  % Degraded, substrate F1-KSQPQ: 15%
  % Degraded, substrate F1-QHQ: 5%
  % Degraded, substrate F1-QPQ: 5%
  % Degraded, substrate F1-QQQ: 15%
Proteasomes [7]; result in words
  Degradation of polyQ peptides: resistant to degradation
Proteasome [8]
  Relative affinity for proteasome: 100
